Blank lines part the entries; values can stand above or below the substance they belong to.
Experiments:
[1] = molecular target: collagen I (purified, Sigma; acid-soluble human collagen type I in BIAcore) (human) (UniProt P02452); assay: SPR (BIAcore), equilibrium binding to immobilised collagen I
[2] = molecular target: collagen III (purified, Sigma; acid-soluble human collagen type III in BIAcore) (human) (UniProt P02461); assay: BIAcore, equilibrium binding to immobilized human collagen III
[3] = molecular target: collagen I (purified, Sigma; acid-soluble human collagen type I in BIAcore) (human) (UniProt P02452)
[4] = molecular target: collagen III (purified, Sigma; acid-soluble human collagen type III in BIAcore) (human) (UniProt P02461)
[5] = molecular target: collagen I (purified, Sigma; acid-soluble human collagen type I in BIAcore) (human) (UniProt P02452); assay: SPR (BIAcore), biphasic dissociation from collagen I, component Koff1
[6] = molecular target: collagen I (purified, Sigma; acid-soluble human collagen type I in BIAcore) (human) (UniProt P02452); assay: SPR (BIAcore), biphasic dissociation from collagen I, component Koff2
[7] = molecular target: collagen I (purified, Sigma; acid-soluble human collagen type I in BIAcore) (human) (UniProt P02452); assay: BIAcore, equilibrium binding to immobilized human collagen I
[8] = molecular target: collagen III (purified, Sigma; acid-soluble human collagen type III in BIAcore) (human) (UniProt P02461); assay: SPR (BIAcore), biphasic dissociation from collagen III, component Koff1
[9] = molecular target: collagen III (purified, Sigma; acid-soluble human collagen type III in BIAcore) (human) (UniProt P02461); assay: SPR (BIAcore), equilibrium binding to immobilised collagen III
[10] = molecular target: collagen III (purified, Sigma; acid-soluble human collagen type III in BIAcore) (human) (UniProt P02461); assay: SPR (BIAcore), biphasic dissociation from collagen III, component Koff2
[11] = molecular target: hLAIR-1-CD3ζ chimera on 2B4 NFAT-GFP reporter cells (human) (UniProt Q6GTX8)
[12] = molecular target: hLAIR-1-CD3ζ chimera on 2B4 NFAT-GFP reporter cells (human) (UniProt Q6GTX8); remark: listed apart in the source

Chain of collagen III (purified, Sigma; acid-soluble human collagen type III in BIAcore) (human) (P02461 154-1221): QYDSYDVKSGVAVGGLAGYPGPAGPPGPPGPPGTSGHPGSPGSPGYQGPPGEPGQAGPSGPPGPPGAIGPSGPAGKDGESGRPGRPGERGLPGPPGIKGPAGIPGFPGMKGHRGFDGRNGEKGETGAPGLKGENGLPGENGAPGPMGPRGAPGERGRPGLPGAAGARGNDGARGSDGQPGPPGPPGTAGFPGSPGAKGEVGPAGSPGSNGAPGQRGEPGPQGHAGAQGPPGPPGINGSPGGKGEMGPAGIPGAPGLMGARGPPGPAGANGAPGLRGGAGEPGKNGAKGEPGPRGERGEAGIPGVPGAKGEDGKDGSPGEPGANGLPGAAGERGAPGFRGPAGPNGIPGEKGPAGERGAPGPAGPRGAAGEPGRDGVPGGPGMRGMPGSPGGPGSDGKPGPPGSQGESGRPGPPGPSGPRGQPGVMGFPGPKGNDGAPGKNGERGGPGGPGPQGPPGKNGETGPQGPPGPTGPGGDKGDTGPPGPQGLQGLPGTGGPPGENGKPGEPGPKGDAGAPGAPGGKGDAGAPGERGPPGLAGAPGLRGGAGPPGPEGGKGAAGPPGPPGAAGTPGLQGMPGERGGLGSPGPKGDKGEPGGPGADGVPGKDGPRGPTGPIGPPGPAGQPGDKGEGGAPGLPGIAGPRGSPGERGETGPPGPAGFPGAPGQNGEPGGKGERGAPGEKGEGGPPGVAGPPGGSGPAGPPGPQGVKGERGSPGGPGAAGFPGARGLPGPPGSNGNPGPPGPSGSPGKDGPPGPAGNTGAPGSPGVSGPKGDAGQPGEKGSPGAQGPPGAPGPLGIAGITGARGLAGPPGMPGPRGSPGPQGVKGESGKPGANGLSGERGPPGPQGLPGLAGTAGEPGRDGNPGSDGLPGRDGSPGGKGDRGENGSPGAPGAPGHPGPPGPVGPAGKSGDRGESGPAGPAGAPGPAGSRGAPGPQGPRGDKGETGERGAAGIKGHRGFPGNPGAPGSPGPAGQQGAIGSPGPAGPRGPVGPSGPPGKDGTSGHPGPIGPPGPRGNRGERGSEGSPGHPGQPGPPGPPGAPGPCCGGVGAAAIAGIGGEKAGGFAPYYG
Chain of hLAIR-1-CD3ζ chimera on 2B4 NFAT-GFP reporter cells (human) (Q6GTX8 22-165, change not shown): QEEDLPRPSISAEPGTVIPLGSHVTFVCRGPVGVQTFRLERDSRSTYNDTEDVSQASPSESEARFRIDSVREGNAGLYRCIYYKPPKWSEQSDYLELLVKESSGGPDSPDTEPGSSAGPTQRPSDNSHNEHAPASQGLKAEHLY

Bmax (mol/mol Col I) [1]: 10.4
Kd [2]: 41.4 nM
percentage of GFP-positive hLAIR-1-CD3ζ reporter cells on Collagen I pre-incubated with LAIR-2-IgG (55.0 without block) [3]: 0.5%
percentage of GFP-positive hLAIR-1-CD3ζ reporter cells on Collagen III pre-incubated with LAIR-2-IgG (45.3 without block) [4]: 8.4%
koff [5]: 0.00083 s⁻¹
koff [6]: 0.0073 s⁻¹
Kd [7]: 34.6 nM
koff [8]: 0.0005 s⁻¹
Bmax (mol/mol Col III) [9]: 10.7
koff [10]: 0.0046 s⁻¹
Substance: LAIR-2-IgG (human LAIR-2 fused to the Fc region of human IgG1) (from UniProt Q6ISS4 22-152) (Fc fusion)

percentage of GFP-positive hLAIR-1-CD3ζ reporter cells on Collagen I pre-incubated with Control IgG (55.0 without block) [3]: 50.3%
percentage of GFP-positive hLAIR-1-CD3ζ reporter cells on Collagen III pre-incubated with Control IgG (45.3 without block) [4]: 42.8%
Substance: Control IgG (Fc fusion)

percentage of GFP-positive reporter cells on Collagen I without block (parental cells 0.2) [11]: 55%
percentage of GFP-positive reporter cells on coated Col I (parental cells 0.3) [12]: 33.8%
Substance: collagen I (purified, Sigma; acid-soluble human collagen type I in BIAcore) (from UniProt P02452 162-1218; P08123 80-1119) (ligand)
